T1: Human Cerberus-hIgg-Fc (human, UniProt O95813 18-267)
T1 construct: signal peptide in the construct; also called Cerberus-Fc; full-length Cerberus-Fc; source: CHO cells, purified from conditioned medium (Protein A, SEC); not shown: Fc (human IgG1), C-terminal, kept
T1 sequence (looked up): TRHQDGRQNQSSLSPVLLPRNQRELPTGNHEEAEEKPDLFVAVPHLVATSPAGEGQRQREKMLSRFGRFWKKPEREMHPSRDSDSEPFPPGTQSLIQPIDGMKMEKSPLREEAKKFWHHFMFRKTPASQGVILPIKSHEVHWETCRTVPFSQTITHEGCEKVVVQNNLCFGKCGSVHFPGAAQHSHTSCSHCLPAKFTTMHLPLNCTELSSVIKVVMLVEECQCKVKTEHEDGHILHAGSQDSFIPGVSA

T2: Recombinant Activin A (human, UniProt P08476 311-426)
T2 construct: Activin A (inhibin beta A chain), recombinant; source: bought: R&D Biosystems or Life Technologies; also produced in-house
T2 sequence (looked up): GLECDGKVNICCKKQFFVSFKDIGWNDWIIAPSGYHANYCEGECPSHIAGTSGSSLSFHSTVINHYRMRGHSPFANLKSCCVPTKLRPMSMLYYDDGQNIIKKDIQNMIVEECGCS

T3: Human Cerberus-hIgg-Fc (human), O95813
T3 chain: T1 sequence (looked up)

T4: BMPRII-Fc (human, UniProt Q13873 27-150)
T4 construct: type II receptor BMPRII, human, extracellular domain-Fc fusion; Bought protein; source: bought: R&D Biosystems or Life Technologies
T4 sequence (looked up): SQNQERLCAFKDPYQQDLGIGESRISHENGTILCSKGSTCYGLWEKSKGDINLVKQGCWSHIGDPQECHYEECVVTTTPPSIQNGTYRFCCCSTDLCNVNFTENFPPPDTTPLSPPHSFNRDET

T5: Cripto-1-Fc (human, UniProt P13385 31-151)
T5 construct: signal peptide in the construct; Cripto1 (1-151), amplicon from cDNA (Thermo Scientific) fused to the hIgg1-Fc domain by PCR; source: CHO cells, purified from conditioned medium (Protein A, SEC)
T5 sequence (looked up): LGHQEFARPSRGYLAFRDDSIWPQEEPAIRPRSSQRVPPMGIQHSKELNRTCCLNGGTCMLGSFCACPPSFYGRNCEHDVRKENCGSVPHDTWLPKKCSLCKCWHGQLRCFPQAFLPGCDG

B1: Recombinant GDF-11 (ligand, human, UniProt O95390 299-407, looked up)
chain: NLGLDCDEHSSESRCCRYPLTVDFEAFGWDWIIAPKRYKANYCSGQCEYMFMQKYPHTHLVQQANPRGSAGPCCTPTKMSPINMLYFNDKQQIIYGKIPGMVVDRCGCS
notes: GDF-11, recombinant; source: bought: R&D Biosystems or Life Technologies
B2: human ACTRIIB-hIgg-Fc (Fc fusion, UniProt Q13705 19-120, looked up)
chain: SGRGEAETRECIYYNANWELERTNQSGLERCEGEQDKRLHCYASWRNSSGTIELVKKGCWLDDFNCYDRQECVATEENPQVYFCCCEGNFCNERFTHLPEAG
notes: signal peptide in the construct; extracellular domain of human ActRIIB (1-120), joined to human IgG1 Fc by a 22 amino acid linker with a TEV site, a glycine/serine rich region and a FLAG-tag; Synthetic gene from GeneArt; also called ACTRIIB-Fc; source: CHO cells, purified from conditioned medium (Protein A, SEC)
B3: Recombinant BMP-2, P12643 283-396 (ligand)
chain: QAKHKQRKRLKSSCKRHPLYVDFSDVGWNDWIVAPPGYHAFYCHGECPFPLADHLNSTNHAIVQTLVNSVNSKIPKACCVPTELSAISMLYLDENEKVVLKNYQDMVVEGCGCR
B4: human ALK4-hIgg-Fc (Fc fusion, UniProt P36896 24-110, looked up)
chain: SGPRGVQALLCACTSCLQANYTCETDGACMVSIFNLDGMEHHVRTCIPKVELVPAGKPFYCLSSEDLRNTHCCYTDYCNRIDLRVPS
notes: signal peptide in the construct; extracellular domain of human ALK4 (1-110), joined to human IgG1 Fc by a 22 amino acid linker with a TEV site, a glycine/serine rich region and a FLAG-tag; Synthetic gene from GeneArt; also called ALK4-Fc; source: CHO cells, purified
B5: recombinant human Nodal (ligand, UniProt Q96S42 238-347, looked up)
chain: HHLPDRSQLCRKVKFQVDFNLIGWGSWIIYPKQYNAYRCEGECPNPVGEEFHPTNHAYIQSLLKRYQPHRVPSTCCAPVKTKPLSMLYVDNGRVLLDHHKDMIVEECGCL
notes: Nodal, human, recombinant (RnD Systems); source: bought: RnD Systems

Key:
Assay in all cases: SPR; Biacore 2000; 200-300 RU of Fc fusion captured by anti-human IgG (Fc) antibody on a CM5 chip; concentration series of ligand injected at 50 ul/min; 25 C; HBS-EPS (0.01 M HEPES, 0.5 M NaCl, 3 mM EDTA, 0.005% Tween 20, pH 7.4); 1:1 Langmuir model with mass transport; Kd = kd/ka
[1] = target: T1, Human Cerberus-hIgg-Fc; conditions: both partners purified
[2] = target: B5; conditions: both partners purified
[3] = target: T2, Recombinant Activin A; conditions: both partners purified
[4] = target: T3, Human Cerberus-hIgg-Fc (human), O95813; conditions: remark: other sources report otherwise
[5] = target: T1, Human Cerberus-hIgg-Fc; conditions: both partners purified; remark: listed apart in the source
[6] = target: T4, BMPRII-Fc; conditions: both partners purified
[7] = target: T6, human Cryptic-hIgg-Fc (human, UniProt P0CG37 26-158); conditions: both partners purified
T6 construct: signal peptide in the construct; human Cryptic (1-158), joined to human IgG1 Fc by a 22 amino acid linker with a TEV site, a glycine/serine rich region and a FLAG-tag; Synthetic gene from GeneArt; also called Cryptic-Fc; source: CHO cells, purified from conditioned medium (Protein A, SEC)
T6 sequence (P0CG37 26-158): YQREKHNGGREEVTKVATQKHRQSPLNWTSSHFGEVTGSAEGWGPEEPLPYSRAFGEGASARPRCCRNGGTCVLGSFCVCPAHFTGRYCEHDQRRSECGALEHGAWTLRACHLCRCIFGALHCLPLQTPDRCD

[8] = target: T5, Cripto-1-Fc; conditions: both partners purified

| Kd [1] | koff [1] | kon [1] | Kd [2] | koff [2] | kon [2] | Kd [3] | koff [3] | kon [3] | Binder | other results |
| --- | --- | --- | --- | --- | --- | --- | --- | --- | --- | --- |
| 5800 nM | 0.014 s⁻¹ | 1200 M⁻¹ s⁻¹ |  |  |  |  |  |  | B1 |  |
|  |  |  | ~10 nM | ~0.00049 s⁻¹ | ~49000 M⁻¹ s⁻¹ | 0.018 nM | 2.7e-05 s⁻¹ | 1.5e+06 M⁻¹ s⁻¹ | B2 |  |
|  |  |  |  |  |  |  |  |  | B3 | Kd [4]: 3000 nM; koff [4]: 0.072 s⁻¹; kon [4]: 24000 M⁻¹ s⁻¹ |
|  |  |  | ~15 nM | ~0.00032 s⁻¹ | ~46000 M⁻¹ s⁻¹ | 2.4 nM | 0.00048 s⁻¹ | 200000 M⁻¹ s⁻¹ | B4 |  |
| 1.1 nM | 1.4e-05 s⁻¹ | 13000 M⁻¹ s⁻¹ |  |  |  |  |  |  | B5 | Kd [5]: 1 nM; Kd [6]: 0.149 nM; koff [6]: 4.6e-05 s⁻¹; kon [6]: 310000 M⁻¹ s⁻¹; Kd [7]: 2000 nM; koff [7]: 0.001 s⁻¹; kon [7]: 550 M⁻¹ s⁻¹; Kd [8]: 16 nM; koff [8]: 0.00026 s⁻¹; kon [8]: 10000 M⁻¹ s⁻¹ |

— publication PMC4300205, “Human Cerberus Prevents Nodal-Receptor Binding, Inhibits Nodal Signaling, and Suppresses Nodal-Mediated Phenotypes” (PLoS ONE, 2015)
